According to publication PMC3001195 (Structure (London, England : 1993), 2010):

Columns and labels:
[1] = molecular target: the molecule itself; assay: negative-stain electron microscopy
[2] = molecular target: the molecule itself; assay: crystal structure
[3] = molecular target: the molecule itself; assay: SEC

B1: NtrC1^C,WT, central (AAA+ ATPase) domain of NtrC1 of Aquifex aeolicus (domain or fragment)
chain: RKENELLRREKDLKEEEYVFESPKMKEILEKIKKISCAECPVLITGESGVGKEVVARLIHKLSDRSKEPFVALNVASIPRDIFEAELFGYEKGAFTGAVSSKEGFFELADGGTLFLDEIGELSLEAQAKLLRVIESGKFYRLGGRKEIEVNVRILAATNRNIKELVKEGKFREDLYYRLGVIEIEIPPLRERKEDIIPLANHFLKKFSRKYAKEVEGFTKSAQELLLSYPWYGNVRELKNVIERAVLFSEGKFIDRGELSCLVNSK
stoichiometry N [1]: 7

B2: NtrC1^C,E239A, Walker-B variant of the central domain of NtrC1 of Aquifex aeolicus (domain or fragment)
chain: RKENELLRREKDLKEEEYVFESPKMKEILEKIKKISCAECPVLITGESGVGKEVVARLIHKLSDRSKEPFVALNVASIPRDIFEAELFGYEKGAFTGAVSSKEGFFELADGGTLFLDAIGELSLEAQAKLLRVIESGKFYRLGGRKEIEVNVRILAATNRNIKELVKEGKFREDLYYRLGVIEIEIPPLRERKEDIIPLANHFLKKFSRKYAKEVEGFTKSAQELLLSYPWYGNVRELKNVIERAVLFSEGKFIDRGELSCLVNSK
stoichiometry N [2]: 7

B3: NtrC1^C,R293A (domain or fragment, Aquifex aeolicus)
chain: RKENELLRREKDLKEEEYVFESPKMKEILEKIKKISCAECPVLITGESGVGKEVVARLIHKLSDRSKEPFVALNVASIPRDIFEAELFGYEKGAFTGAVSSKEGFFELADGGTLFLDEIGELSLEAQAKLLRVIESGKFYRLGGRKEIEVNVRILAATNRNIKELVKEGKFAEDLYYRLGVIEIEIPPLRERKEDIIPLANHFLKKFSRKYAKEVEGFTKSAQELLLSYPWYGNVRELKNVIERAVLFSEGKFIDRGELSCLVNSK
binding result [3]: binds
